Columns and labels:
[1] = biological target: recombinant human HER2 protein HER2-ECD with His-tag (human) (UniProt P04626); assay: ELISA on coated HER2-ECD, 11-point dilution from 1000 ng/ml
[2] = biological target: recombinant human HER2 protein HER2-ECD with His-tag (human) (UniProt P04626); assay: ELISA on coated HER2-ECD, average of 3 independent assays, single site fit

Sequence of RC48-vc-MMAF (VH): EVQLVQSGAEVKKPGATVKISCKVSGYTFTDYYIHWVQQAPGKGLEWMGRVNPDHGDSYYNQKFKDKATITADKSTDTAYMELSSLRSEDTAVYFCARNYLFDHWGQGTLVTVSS
Sequence of RC48-vc-MMAF (VL): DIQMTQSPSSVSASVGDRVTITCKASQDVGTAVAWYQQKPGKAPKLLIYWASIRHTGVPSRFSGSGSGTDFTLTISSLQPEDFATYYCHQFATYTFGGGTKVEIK
Sequence of RC48-vc-MMAE (VH): as the sequence (VH) above
Sequence of RC48-vc-MMAE (VL): as the sequence (VL) above
Sequence of humanized anti-HER2 antibody RC48 (VH): as the sequence (VH) above
Sequence of humanized anti-HER2 antibody RC48 (VL): as the sequence (VL) above

Affinity [1] [ng/mL] | Molar equivalent [1] [pmol/L] | Kd [2] [nM] | Substance
2.24 | 15.2 | – | RC48-vc-MMAE
3.35 | 13.5 | – | RC48-vc-MMAF
– | – | 0.077 | human-murine chimeric antibody cRC48
– | – | 0.044 | humanized anti-HER2 antibody RC48

Source: patent US20160304621A1
